Assay [1] addresses T1, Full-length Human OX40 (human, UniProt P43489 29-277).
T1 construct: also called OXF001; human OX40/CHO
T1 sequence: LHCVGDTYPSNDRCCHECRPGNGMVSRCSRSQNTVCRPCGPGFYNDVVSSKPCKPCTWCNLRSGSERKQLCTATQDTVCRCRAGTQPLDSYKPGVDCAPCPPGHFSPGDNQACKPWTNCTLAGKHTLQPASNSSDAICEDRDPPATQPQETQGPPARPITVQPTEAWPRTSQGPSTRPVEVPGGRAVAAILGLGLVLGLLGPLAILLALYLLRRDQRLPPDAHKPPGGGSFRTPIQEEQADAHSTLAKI
The assay can be described thus: flow cytometry, CHO cells expressing human OX40. As to the method: (§1) FIGS. 12A-12D show the binding of anti-4-1BB x anti-OX40 constructs, with additional humanization in 4-1BB and altered orientations of binding domains, human (12A) or cynomolgus (12C) 4-1BB-expressing Jurkat cells or human (12B) or cynomolgus (12D) OX40-expressing CHOK1SV cells. Serial dilutions of ADAPTIR™ constructs were incubated with transfected cells and subsequently labelled with a fluorescently-conjugated goat-a-human Fc secondary antibody. […] (See Example 19.)
(§2) Binding studies were performed using the flow cytometry-based staining procedures described above.

In assay [2] the target is T2, Full-length Human 4-1BB (human, UniProt Q07011 24-255).
T2 construct: also called FOB005; CD137
Nature of the assay: flow cytometry, Jurkat cells expressing human 4-1BB. As to the method:
as §1, §2
A general note: Flow cytometry measures light scatter and fluorescence of single cells or particles in a stream.

In assay [3] the target is T2, Full-length Human 4-1BB. The assay can be described thus: cell-based or functional assay.
Assay [4] has as its target T1, Full-length Human OX40. The assay can be described thus: cell-based or functional assay.
Assay [5] addresses T3, Full-length Cyno 4-1BB (cynomolgus monkey, UniProt Q07011 24-255 (human entry)).
T3 construct: on Jurkat or CHO cells; also called FOB006; cynomolgus 4-1BB
T3 chain: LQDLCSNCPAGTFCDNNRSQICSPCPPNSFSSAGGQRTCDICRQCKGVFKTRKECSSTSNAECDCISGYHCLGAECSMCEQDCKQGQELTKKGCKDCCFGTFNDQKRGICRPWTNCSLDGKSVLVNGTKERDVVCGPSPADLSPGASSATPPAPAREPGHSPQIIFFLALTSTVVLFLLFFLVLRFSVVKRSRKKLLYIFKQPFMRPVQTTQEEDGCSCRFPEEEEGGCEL
Nature of the assay: flow cytometry on Jurkat cells transfected with cynomolgus 4-1BB, goat anti-human Fc secondary antibody, MFI (Mean). How it is done:
as §1, §2

For assay [6], the target named is T4, Human 4-1BB ECD-AFH (human).
T4 construct: entry includes the tags; also called FOB003; HUMAN CD137 ECD-AVI-FLAG-HIS
The assay can be described thus: SPR, construct captured, monomeric ECD as analyte. How it is done: (§3) Mouse anti-human IgG (GE, BR-1008-39) at 25 μg/ml in 10 mM sodium acetate pH 5.0 was immobilized at a density of ˜10,000 response units (RU) onto each flow cell of a CM5 research-grade sensor chip (GE) by standard amine coupling chemistry. Each binding protein at approximately 100 nM in HBS-EP+ with 0.2% BSA buffer was captured in a flow cell with the immobilized anti-human IgG at a flow rate of 10 μL/min for 20 seconds, leaving one flow cell surface unmodified as the reference. Using a single-cycle kinetics mode, five different concentrations of ECD were sequentially injected through each flow cell at 30 μL/min for 300 seconds followed by a 600 second dissociation period. Regeneration was achieved by injection of 3 M MgCl₂ at a flow rate of 30 μL/min for 30 seconds followed by HBS-EP+ with 0.2% BSA buffer stabilization for 1 min.
(§4) Sensorgrams obtained from kinetic SPR measurements were analyzed by the double subtraction method. The signal from the reference flow cell was subtracted from the analyte binding response obtained from flow cells with immobilized or captured ligands. Buffer reference responses were then averaged from multiple injections. The averaged buffer reference responses were then subtracted from analyte binding responses, and the final double-referenced data were analyzed with Biacore T200 Evaluation software (2.0, GE), globally fitting data to derive kinetic parameters. All sensorgrams were fitted using a simple one-to-one binding model.
(§5) Protein was produced by transient expression, purified by ProA chromatography and prep SEC.

The target in assay [7] is T5, Human OX40 ECD-AFH (human).
T5 construct: ECD'; entry includes the C-terminal tags; also called OXF003; Human OX40 ECD-avi-flag-his
T5 chain: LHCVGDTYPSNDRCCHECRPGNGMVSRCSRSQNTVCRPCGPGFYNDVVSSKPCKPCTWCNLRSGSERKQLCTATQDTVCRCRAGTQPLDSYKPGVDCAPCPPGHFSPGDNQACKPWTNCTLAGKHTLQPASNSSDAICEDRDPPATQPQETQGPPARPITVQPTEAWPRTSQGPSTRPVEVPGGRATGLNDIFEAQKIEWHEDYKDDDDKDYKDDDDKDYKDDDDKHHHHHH
Nature of the assay: SPR, construct captured, monomeric ECD as analyte. As to the method: as §3, §4, §5

Assay [8] deals with T6, Full-length Cyno OX40 (cynomolgus monkey, UniProt P43489 29-277 (human entry)).
T6 construct: on CHO-K1SV cells; also called OXF004; cynomolgus OX40
T6 chain: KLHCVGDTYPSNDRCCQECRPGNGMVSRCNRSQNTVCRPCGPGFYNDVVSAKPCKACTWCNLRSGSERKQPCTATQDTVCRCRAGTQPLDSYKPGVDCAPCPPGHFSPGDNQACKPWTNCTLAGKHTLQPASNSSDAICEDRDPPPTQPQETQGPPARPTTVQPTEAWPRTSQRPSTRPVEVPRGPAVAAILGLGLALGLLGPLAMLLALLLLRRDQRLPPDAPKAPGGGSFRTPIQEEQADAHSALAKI
Nature of the assay: flow cytometry on CHOK1SV cells transfected with cynomolgus OX40, goat anti-human Fc secondary antibody, MFI (Mean). As to the method:
as §1, §2

Assay [9] deals with T7, Recombinant FcRn/b2M protein (human, UniProt P55899 24-297; P61769 21-119, limits assumed).
T7 construct: also called hFcRn/b2M; neonatal Fc receptor
Nature of the assay: SPR pH 6.0, FcRn/b2M immobilized, two-state reaction model. How it is done:
Recombinant FcRn/b2M protein was generated via transient transfection of HEK-293 cells with a bi-cistronic vector containing the genes for both FcRn and […]. The complex was purified using IMAC chromatography and subsequently buffer exchanged into IMAC elution buffer after verifying purity of the IMAC eluate by analytical SEC. hFcRn/b2M at 10 μg/ml in 10 mM sodium acetate (pH 4.5) was immobilized on a CM5 chip by direct amine coupling chemistry to a level of ˜600 RU. A reference flow cell was left blank.
Different concentrations of the Fc variant protein (5-80 nM by 2-fold dilutions in pH 6.0 running buffer) including running buffer as blank were injected in randomized order at 30 μL/min for 180 seconds followed by a 120 second dissociation period.
Sensorgrams obtained from kinetic SPR measurements were analyzed by the double subtraction method. The signal from the reference flow cell was subtracted from the analyte binding response obtained from flow cell with immobilized ligands. Buffer reference was subtracted from analyte binding responses, and the final double-referenced data were analyzed with Biacore T200 Evaluation software (2.0, GE), globally fitting data to derive kinetic parameters. All sensorgrams were fitted using two-state reaction model, as described in Weirong Wang et al, DrugMetab Dispos.: 39(9): 1469-77 (2011).

T4 sequence (chain, as listed by the source limits assumed): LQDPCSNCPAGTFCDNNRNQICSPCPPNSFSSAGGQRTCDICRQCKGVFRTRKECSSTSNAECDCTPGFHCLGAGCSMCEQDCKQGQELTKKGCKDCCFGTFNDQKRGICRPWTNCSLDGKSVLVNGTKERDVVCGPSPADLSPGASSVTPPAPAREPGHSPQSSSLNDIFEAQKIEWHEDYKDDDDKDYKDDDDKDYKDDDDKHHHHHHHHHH
T7 sequence (P55899 24-297 limits assumed, chain 1 of 2): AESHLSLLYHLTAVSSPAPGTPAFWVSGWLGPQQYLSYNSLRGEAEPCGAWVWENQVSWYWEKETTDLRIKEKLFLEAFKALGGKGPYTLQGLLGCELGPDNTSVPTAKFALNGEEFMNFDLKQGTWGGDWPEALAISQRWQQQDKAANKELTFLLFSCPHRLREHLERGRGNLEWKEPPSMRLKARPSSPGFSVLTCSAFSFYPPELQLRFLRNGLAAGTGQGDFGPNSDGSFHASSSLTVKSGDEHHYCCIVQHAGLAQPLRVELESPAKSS
T7 sequence (P61769 21-119 limits assumed, chain 2 of 2): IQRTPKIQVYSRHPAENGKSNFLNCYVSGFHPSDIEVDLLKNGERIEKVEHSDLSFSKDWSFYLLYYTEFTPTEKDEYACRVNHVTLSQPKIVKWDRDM

B1: FXX01108 (bispecific antibody)
chain: EIVMTQSPATLSLSPGERATLSCRASQSVSSYLNWYQQKPGQAPRLLIYYASRRHTGIPARFSGSGSGTDFTLTISSLQPEDFAVYYCQQGYNLPYTFGQGTKVEIKGGGGSGGGGSGGGGSGGGGSEVQLVQSGAEVKKPGASVKVSCKASGYTFTSYWMNWVRQAPGQGLEWMGNIYPSGGSTNYAQKFQGRVTMTVDTSTSTVYMELSSLRSEDTAVYYCASFSDGYYAYAMDYWGQGTLVTVEPKSSDKTHTCPPCPAPPAAAPSVFLFPPKPKDTLMISRTPEVTCVVVDVSHEDPEVKFNWYVDGVEVHNAKTKPREEQYNSTYRVVSVLTVLHQDWLNGKEYKCAVSNKALPAPIEKTISKAKGQPREPQVYTLPPSRDELTKNQVSLTCLVKGFYPSDIAVEWESNGQPENNYKTTPPVLDSDGSFFLYSKLTVDKSRWQQGNVFSCSVMHEALHNHYTQKSLSLSPGGGGSPSSYVLTQPPSVSVAPGKTARITCGGNNIGSKSVNWFQQKPGQAPVLVVYDDSGRPSGIPERFSGSTSGNTATLTISRVEAGDEADYYCQVWDSSSDHVVFGGGTKLTVLGGGGSGGGGSGGGGSGGGGSQVQLVESGGGVVQPGRSLRLSCAASGFTLSYYGMHWVRQAPGKGLEWVAAISHDGSDKYYADSVKGRFTISRDNSKNRLYLQMNSLRAEDTAVYYCSNDQFDPWGQGTLVTVSSR
notes: ADAPTIR anti-4-1BB (LH) x anti-OX40 with Q17K and T86R
For B1, in [1], it took 0.32 nM to reach a half-maximal effect (EC50) and the “max MFI” value came out at 10300 MFI. In [2], the EC50 (usually the concentration at which the effect is half-maximal) was determined as 0.29 nM and the “max MFI” value worked out at 4770 MFI. Further, in assay [3], the “4-1BB Reporter Assay EC50” value is 0.013 nM and the “4-1BB Reporter Assay Max induction” value is 6.61e+06. In [4], the “OX40 Reporter Assay EC50” value was 0.013 nM and the “OX40 Reporter Assay Max induction” value was found to be 2.07e+06. Besides, the EC50 (read off the curve) (usually the midpoint of the concentration-response curve) in [5] is approximately 0.3 nM. Moreover, in assay [6], the Kd – broadly, a measure of binding affinity in units of concentration – turned out to be 18 nM; the koff – broadly, the first-order rate constant of dissociation – was found to be 0.0055 s⁻¹; the kon (commonly the rate constant with which the complex forms) came out at 310000 M⁻¹ s⁻¹. In assay [7], this molecule had a dissociation constant Kd of 0.8 nM, a koff of 0.00039 s⁻¹ and a kon of 480000 M⁻¹ s⁻¹. In addition, the “EC50 (read off the curve)” value in assay [8] is approximately 0.8 nM.

B2: K322A Fc (other)
chain: EPKSSDKTHTCPPCPAPEAAGAPSVFLFPPKPKDTLMISRTPEVTCVVVDVSHEDPEVKFNWYVDGVEVHNAKTKPREEQYNSTYRVVSVLTVLHQDWLNGKEYKCAVSNKALPAPIEKTISKAKGQPREPQVYTLPPSRDELTKNQVSLTCLVKGFYPSDIAVEWESNGQPENNYKTTPPVLDSDGSFFLYSKLTVDKSRWQQGNVFSCSVMHEALHNHYTQKSLSLSPG
notes: IgG1 Fc with L234A, L235A, G237A, K322A (EU); the listing labels the entry 'K332A'
For B2, the Kd in [9] is 22 nM.

B3: Null2 Fc (other, human, UniProt P01857-1 99-329, looked up, name in EU numbering)
chain: EPKSCDKTHTCPPCPAPEAAGAPSVFLFPPKPKDTLMISRTPEVTCVVVDVSHEDPEVKFNWYVDGVEVHNAKTKPREEQYNSTYRVVSVLTVLHQDWLNGKAYACAVSNKALPAPIEKTISKAKGQPREPQVYTLPPSRDELTKNQVSLTCLVKGFYPSDIAVEWESNGQPENNYKTTPPVLDSDGSFFLYSKLTVDKSRWQQGNVFSCSVMHEALHNHYTQKSLSLSPG
notes: domain: Fc region
Turning to B3, the equilibrium dissociation constant (Kd) in assay [9] was determined as 33 nM.

Source of the values: patent publication US20220242962A1 (APTEVO RESEARCH AND DEVELOPMENT, published 2022).
